Consider one substance from publication PMC3046144.

For this assay, the target named is H5N1 A/Vietnam/1203/2004 HA1 (1-330) protein from 293 Flp-In cells (influenza A virus A/Vietnam/1203/2004 (H5N1)). Briefly: SEC. (In general: SEC sorts molecules by how far they enter the pores of the column.)

The substance “H5N1 A/Vietnam/1203/2004 HA1 (1-330) protein from 293 Flp-In cells (domain or fragment)” displayed a stoichiometry N of 3.

Usually stoichiometry N stands for the number of molecules, sites or subunits per partner or assembly.
